System: MS2 coat protein
Test: apparent KD of MS2 coat protein; designed switch direction (-1 OFF switch, 1 ON switch): -1; higher = weaker reporter binding
Summary of the method: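 Designed RNA switches with common flanks were made on Illumina chips by stalled E. coli RNA polymerase. Titration with SNAP-549-labelled MS2 coat protein doubled from 0.7 or 1.5 nM up to 3 µM. Apparent KD is each design's median over clusters after curve-fitting normalised fluorescence.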

[1] = input ligand: microRNA oligo, concentration not stated
[2] = Eterna round: R95, input ligand: microRNA oligo, concentration not stated

Sequence	apparent KD of MS2 coat protein (input ligand: FMN 200 uM)	apparent KD of MS2 coat protein (input ligand: none)	apparent KD of MS2 coat protein [1]	apparent KD of MS2 coat protein [2]
CCCGCACGAGUUAGGAUAUCAUUUGUCGAGAUAGGUGAGAAGGAACUUGAGGAUCACCCAAGUGUCCCGGGAAA [Maquso] (Eterna round: R97, puzzle: Brourd's mod of Exclusion 4)	37.5 nM	20.1 nM		
GGGCCCGGAGGAUAUACAUGAGGAUCACCCAUGUAGGGCCCGGGUAUUCCCGGGUUUUGUAGAAGGCCGGGUUU [-33.8, -30.7 kcal, A 19%, 5a,5a] (Eterna round: R97, puzzle: Exclusion 3)	25.1 nM	14.8 nM		
UAAUAACAAGCGAGAUCCUACAUGAGGAUCACCCAUGUGCUCGUCUUAUAAGGUACUGUGACGAAAGUCACGGUACC [Eli 87 + Mat D67] (Eterna round: R97, puzzle: Sensor, turn-off variant 1)	17.9 nM	20.1 nM		
AGGGAACCCAAGGAUAUUGAGAGUUAAGCCACUUAAGAAGGUGGUACAUGAGGAUCACCCAUGUCCCUUGCAGA [Eternabot (L1) Solution 6] (Eterna round: R97, puzzle: Exclusion 6)	38.3 nM	41.6 nM		
UCAUGUUAGCAGGAUAUGCUAUUUAUUUUUUAUGCAGAAGGGCUUACAUGAGGAUCACCCAUGUGUUAGGUUUU [JR_E6_Sub073] (Eterna round: R96, puzzle: Exclusion 6)	34.8 nM	70.6 nM	41.5 nM	
GCUGCGCGAGGAUAUGCGGUUUGUGCUGUGGCCCGUGGCGUACAUGAGGAUCACCCAUGUAGAAGGCGUGUGGG [Apr-15 SS2-54] (puzzle: Exclusion 2)				22.5 nM
AAGACACAUGAGGAUCACCCAUGUGAGGAUAUUCGAUGCUGAGCGUAAGCUUAGUAUCGGAGAAGGCACAAAGG [Salishxclusion 7 - Jieux - Exclusion 1] (Eterna round: R97, puzzle: Exclusion 1)	119 nM	39.8 nM		
GUGUACAGAGGAUAUACACGAGGAGUUACGAAAGUAACUUCACAUGAGGAUCACCCAUGUAGAAGGCUGUACAC [Dot plot directed v6] (puzzle: Exclusion 2)				25.4 nM
GGUUUGGGAGGAUAUGGUUUGAAUAACAUGAGGAUCACCCAUGUAAAUAGAUCUUCUAGGCCAGAAGGCUCGGGCC [-22.1, -20.72 kcal, A 28%] (Eterna round: R97, puzzle: Exclusion 5)	46 nM	27.8 nM		
GCACGGAGUGUAGGAUAUCUGUGCGAUUAGCUCAGAGAAGGACACAUGAGGAUCACCCAUGUGUUCCAGCGAAAGCUUCCGUGC [Eli exng1 - 047] (Eterna round: R96, puzzle: Exclusion NG 1)	8.15 nM	10.6 nM	9.32 nM	
AGUCUGCGAGGAUAUACAUGAGGAUCACCCAUGUGCGAAGAACUAGUGAGGUCGAUUGGUAGAAGGCGCGGACA [Mat - Exclusion 3 - Mod of JL D88] (puzzle: Exclusion 3)				241 nM
AAACGCAGAGGAUAUACAUAUUUUCCUCAUGUGCAGCUUACACAUGAGGAUCACCCAUGUAGAAGGCUGGAAAA [EX2 A.29] (Eterna round: R97, puzzle: Exclusion 2)	300 nM	48.6 nM		
CCCAGGUCAUCUCCCGGGAACAACAUGAGGAUCACCCAUGUCUAGGAUAUCCACCAGUCAAUAAAGGAGAAGGAGACGGUGGUU [Edatarte] (Eterna round: R96, puzzle: Exclusion NG 3)			20.2 nM	
UAUUAGCAAGUGAGGUCCCACAUGAGGAUCACCCAUGUGCUCGUCUUAUAAGGUACUGUGACGAAAGUCACGGUACC [Sensor 3, v1 - 95 v4] (Eterna round: R97, puzzle: Sensor, turn-off variant 1)	48.7 nM	40.8 nM		

Reference: the supplement of paper PMC9170038
